The conditions of the data set: Equus caballus, pH 7.4, 25 °C, GdnHCl, reversible: Yes.

Among the data in FireProtDB (doi:10.1021/bi061295h) are denaturant m value and unfolding free energy values, retold here.

Sequence of Cytochrome c wild type, P00004 (P00004 whole entry): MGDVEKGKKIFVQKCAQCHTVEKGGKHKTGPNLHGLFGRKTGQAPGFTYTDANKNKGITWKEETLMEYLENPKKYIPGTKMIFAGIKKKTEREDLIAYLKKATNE

Consider Cytochrome c wild type, P00004, for which the denaturant m value reads like this: (CD, Tris 20 mM) 2.8 kcal/mol/M; (SUPREX, Sodium phosphate 20 mM) 3 kcal/mol/M. Moreover, under “CD, Tris 20 mM”, the unfolding free energy worked out at 7.4 kcal/mol.
